Data taken from patent US20130095122A1, “Peptides or Antibodies Which Bind to Melanoma Inhibitory Activity (MIA) Protein” (priority 2010, published 2013).

B2: melanoma inhibitory activity (MIA) protein, recombinant human wild type (other)
chain: GPMPKLADRKLCADQECSHPISMAVALQDYMAPDCRFLTIHRGQVVYVFSKLKGRGRLFWGGSVQGDYYGDLAARLGYFPSSIVREDQTLKPGKVDVKTDKWDFYCQ
notes: In the HTFP assay one copy is labelled with Ru(bpy)3 (in solution) and the other is a biotin conjugate immobilised on streptavidin plates; 15N-enriched MIA was used for NMR; also called wt MIA; MIA wt (RTS)

Experiments:
hMSC = experiment: Hanging drop assay (chondrogenic differentiation); format: cell-based, human; conditions: after day 4 (FIG. 9)
Description: To generate spheroids the hMSC were detached from the culture flask by adding 1 ml Trypsin-EDTA (Provitro). After incubation for a 5 minutes 1 ml neutralizing solution (Provitro) and 8 ml HMSC proliferation medium were added. After centrifugation for 4 min at 1200 rpm and resuspension in Incomplete Chondrogenesis Induction Medium (DMEM with glucose (4.5 g/L), penicillin (400 units/ml) streptomycin (50 μg/ml), L-glutamine (300 μg/ml), sodium pyruvate (1 mM), L-ascorbic acid 2-phosphate (0.17 mM), L-proline ([…]), dexamethasone (1 μM) and ITS premix (BD Biosciences, Heidelberg, Germany)), the cells were counted and adjusted to 50,000 cells/ml. 20% methocel (6 g methyl cellulose (Sigma-Aldrich, Munich, Germany), 250 ml basal medium)) was added and 25 μl of the cells suspension were dropped onto the cover of a 9 mm petri dish. For each experimental condition 10 drops were used. The petri dish was filled with PBS and the cover dish was inverted and incubated for 72 h under a humidified atmosphere of 8% CO2 at 37° C. for 1, 2, 4 and 7 d followed by RNA isolation or alcian blue staining. For treatment, TGF-beta3 (10 ng/ml, Biomol, Hamburg, Germany) was added. At day 4 NA was extracted and analysed. The experiment was repeated 4 times.

Mel Im melanoma cells = experiment: Boyden chamber invasion assay (MIA activity); format: cell-based, human; conditions: MIA pre-incubated with peptide, Mel Im cells (FIG. 7)
Description: Invasion assays were performed in Boyden Chambers containing polycarbonate filters with 8-μm pore size (Neuro Probe, Gaithersburg, Md., USA) essentially as described previously.^13 Filters were coated with matrigel, a commercially available reconstituted basement membrane (diluted 1:3 in H2O; BD Bioscience, Bradford, Mass., USA). The lower compartment was filled with fibroblast-conditioned medium used as a chemo attractant. Mel Im melanoma cells were harvested by trypsinization for 2 min at RT, resuspended in DMEM without FCS at a density 2.5×10^4 cells/mL, and placed in the upper compartment of the chamber. Except for the control experiment with untreated cells and experiments where cells were only treated with the respective peptide, MIA was added to the cell suspension at a final concentration of 200 ng/mL. Peptide AR71 (sequence: Ac-FHWRYPLPLPGQ-NH2) was used at a final concentration of 1 μM. MIA expressing murine B16 melanoma cells stably co-transfected with Sig-AR71-HisTag containing pCMX-PL1 vector^27 and an antibiotic resistance comprising plasmid (pCDNA3), and the respective mock control were also investigated for their ability to migrate. Therefore, cells were harvested by trypsinization for 2 min at RT, resuspended in DMEM without FCS at a density 2.5×10^4 cells/mL, and placed in the upper compartment of the chamber. After incubation at 37° C. for 4 h filters were removed. Cells adhering to the lower surface of the filter were fixed, stained, and counted. Experiments were carried out in triplicates and repeated at least three times.

Sox9 mRNA in human MSC = experiment: Micromass assay (chondrogenic differentiation induced by TGFβ3); format: cell-based; conditions: after days 3 and 7 (FIG. 8)
Description: For analysis of chondrogenesis human MSC differentiation was performed in high density culture. For this, 3×10^5 cells were seeded into each well of a six-well plate. Cells were cultured for the indicated period in induction medium including DMEM (PAA), high glucose (Sigma), 20% fetal calf serum (FCS, PAN Biotech GmbH), MEM Vitamins (Invitrogen), penicillin (100 U/ml), streptomycin (10 μg/ml) (both Sigma), Amphotericin B (2.5 μg/ml) (PAN Biotech GmbH), 0.1 μM dexamethasone, 1 mM sodium pyruvate, 0.17 mM ascorbic acid-2-phosphate, 0.35 mM proline (all Sigma), insulin (5 μg/ml), transferring (5 μg), selenious acid (5 ng) (ITS Premix, Becton Dickinson) and 10 ng/ml human TGF-β3 (R&D Systems). The medium was changed every second day. All groups were done in triplicate. Each experiment was repeated three times. Analysis was performed on RNA level.

MIA protein dimer = molecular target: T1, MIA protein dimer (Homo sapiens, UniProt Q16674); experiment: Western blot analysis of MIA dimer bands; format: biochemical; conditions: western blotting, FIG. 6
T1 construct: made in house; host or cells: cell-free Rapid Translation System RTS 500 E. coli HY Disulfite Kit (Roche)
T1 sequence (Q16674 25-131): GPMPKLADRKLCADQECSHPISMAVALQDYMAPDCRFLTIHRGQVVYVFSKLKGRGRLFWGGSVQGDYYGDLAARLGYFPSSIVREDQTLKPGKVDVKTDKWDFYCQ
Description: (§1) Protein samples were denaturated at 70° C. for 10 min after addition of reducing and denaturing Roti-Load buffer (Roth, Karlsruhe, Germany) and subsequently separated on sodium dodecyl sulfate 12.75% polyacrylamid gels (SDS-PAGE) (Invitrogen, Groningen, The Netherlands). In the multimerization studies, MIA protein (1 μg) was incubated with AR71 (2.5 μg) overnight at RT before being treated as described above. After transferring the proteins onto a polyvinylidene fluoride (PVDF) membrane (BioRad, Richmond, Va., USA), the membrane was blocked using 3% BSA/PBS for 1 h at RT and incubated with a 1:150 dilution of primary polyclonal rabbit anti MIA antibody (Biogenes, Berlin, Germany) in 3% BSA/PBS overnight at 4° C. After washing in PBS the membrane was incubated with a 1:2000 dilution of an […] coupled secondary antibody (Chemikon, Hofheim, Germany) for 2 h at RT. Finally, after washing steps, immunoreactions were visualized by nitro blue tetrazolium/5-bromo-4-chloro-3-indolyl phosphate (NBT/BCIP) (Invitrogen, Karlsruhe, Germany) staining.

[1] = molecular target: B2; experiment: HTFP competition assay
[2] = molecular target: B2; experiment: HTFP competition assay: displacement of MIA-Ru(bpy)3 from immobilised MIA-biotin
Description: (§2) In the control lanes the FP signal of MIA-Ru(bpy)₃ was measured in a well coated with MIA-biotin compared to an uncoated well. The significant increase in FP in the well coated with MIA-biotin indicates binding of MIA-Ru(bpy)₃ to the immobilized MIA-biotin. The binding of MIA-inhibitory compound AR71 promotes dissociation of MIA dimers and displaces the surface-bound MIA-Ru(bpy)₃, as reflected by a decrease in fluorescence polarization signal. […] Pre-incubation of MIA with the respective inhibitory peptide results in a complete neutralization of the MIA effect.
(§3) All measurements were performed at RT on a Polarstar Optima microplate reader (BMG Labtech, Offenburg, Germany). A 390-10 nm bandpass filter was used for excitation while a 520 nm longpass filter was used for the emission light. Even though the extinction coefficient is higher at longer wavelengths, the inventors chose a shorter excitation wavelength as this led to higher polarization values. MIA-Ru(bpy)₃ was prepared and tested for functional activity as described previously.¹⁴ A MIA-Ru(bpy)₃ concentration of 55 fM was used in all experiments. […] All measurements were performed in DPBS without calcium or magnesium (PAN Biotech GmbH, Aidenbach, Germany).

[3] = molecular target: the molecule itself; experiment: HTFP assay: MIA-Ru(bpy)3 on immobilised MIA-biotin, increase in FP signal
Description: as §2, §3

[4] = molecular target: the molecule itself; experiment: Western blot, dimer band (FIG. 1B legend)
Description: as §1, with “In” for “Protein samples were denaturated at 70° C. for 10 min after addition of reducing and denaturing Roti-Load buffer (Roth, Karlsruhe, Germany) and subsequently separated on sodium dodecyl sulfate 12.75% polyacrylamid gels (SDS-PAGE) (Invitrogen, Groningen, The Netherlands). In”
(§4) Having identified the most likely positions of the dimerization interfaces, mutants of MIA were tested for their capability to form dimers by Western blot analysis (FIG. 1B). MIA mutants were expressed in an in vitro transcription/translation system. […] The sites of mutations not affecting functional activity (FIG. 1D, depicted by amino acid labels D29, S81 etc.) are located outside the dimerization regions, whereas G61R (FIG. 1D, depicted by G61) is buried in the dimerization cleft (depicted by the darker grey are in the left panel) in close proximity to the distal loop.

[5] = molecular target: the molecule itself; experiment: Western blot for dimer band, RTS-expressed mutant
Description: as §1, with “In” for “Protein samples were denaturated at 70° C. for 10 min after addition of reducing and denaturing Roti-Load buffer (Roth, Karlsruhe, Germany) and subsequently separated on sodium dodecyl sulfate 12.75% polyacrylamid gels (SDS-PAGE) (Invitrogen, Groningen, The Netherlands). In”
as §4

FHWH (Peptide Sequence identified from HTFP assay screening) [JPT55]
induction of Aggrecan during differentiation (hMSC): inhibit the induction | induction of Sox9 during differentiation (hMSC): inhibit the induction | induction of collagen type II during differentiation (hMSC): inhibit the induction

WHF (Peptide Sequence identified from HTFP assay screening) [JPT67]
inhibition of MIA-activity (neutralization of the MIA effect on invasion) (Mel Im melanoma cells): inhibit MIA-activity

HHH (Peptide Sequence identified from HTFP assay screening) [JPT71]
induction of Sox9 mRNA by TGFβ3 (Sox9 mRNA in human MSC): inhibit the induction of Sox9 mRNA by TGFβ3 significantly

FHWRYPDPDPGQ (Peptide Sequence identified from HTFP assay screening) [JPT79]
inhibition of dimerization of MIA (MIA protein dimer): efficiently inhibited

WWW (Peptide Sequence identified from HTFP assay screening) [JPT73]
inhibition of MIA-activity (neutralization of the MIA effect on invasion) (Mel Im melanoma cells): inhibit MIA-activity | induction of Aggrecan during differentiation (hMSC): inhibit the induction | induction of Sox9 during differentiation (hMSC): inhibit the induction | induction of collagen type II during differentiation (hMSC): inhibit the induction

FHWRYPGPGPGQ [peptide JPT4]
binding result [1]: binds

FHWRYPDPDPGQ [peptide JPT79]
binding result [1]: binds

FHWRYPLPLPGQHHHHHH [peptide JPT62]
binding result [1]: binds

B1: peptide AR71 (Ac-FHWRYPLPLPGQ-NH2) (peptide)
peptide: Ac-FHWRYPLPLPGQ-NH2
notes: Dodecapeptide previously identified by phage display
binding result [2]: binds

FHWH (also called FHWH) [peptide JPT55]
binding result [1]: binds

HHHHHHFHWRYPLPLPGQ [peptide JPT61]
binding result [1]: binds

WHWRYP (also called WHWRYP) [peptide JPT26]
binding result [1]: binds

B2
binding result [3]: binds

B3: MIA mutant K91N (other)
chain: GPMPKLADRKLCADQECSHPISMAVALQDYMAPDCRFLTIHRGQVVYVFSKLKGRGRLFWGGSVQGDYYGDLAARLGYFPSSIVREDQTLNPGKVDVKTDKWDFYCQ
notes: Expressed in the RTS in vitro transcription/translation system
binding result [4]: binds

B4: MIA mutant D29G/Y69H (other)
chain: GPMPKLADRKLCADQECSHPISMAVALQGYMAPDCRFLTIHRGQVVYVFSKLKGRGRLFWGGSVQGDYHGDLAARLGYFPSSIVREDQTLKPGKVDVKTDKWDFYCQ
notes: as for B3
binding result [4]: binds

B5: MIA mutant T89P (other)
chain: GPMPKLADRKLCADQECSHPISMAVALQDYMAPDCRFLTIHRGQVVYVFSKLKGRGRLFWGGSVQGDYYGDLAARLGYFPSSIVREDQPLKPGKVDVKTDKWDFYCQ
notes: as for B3
binding result [4]: binds

B6: MIA mutant V46F/S81P (other)
chain: GPMPKLADRKLCADQECSHPISMAVALQDYMAPDCRFLTIHRGQVFYVFSKLKGRGRLFWGGSVQGDYYGDLAARLGYFPPSIVREDQTLKPGKVDVKTDKWDFYCQ
notes: as for B3
binding result [4]: binds

B7: MIA mutant G61R (other)
chain: GPMPKLADRKLCADQECSHPISMAVALQDYMAPDCRFLTIHRGQVVYVFSKLKGRGRLFWRGSVQGDYYGDLAARLGYFPSSIVREDQTLKPGKVDVKTDKWDFYCQ
notes: Expressed in the RTS in vitro transcription/translation system, unpurified
binding result [5]: no binding
